Source: US20060002969A1

Target: human matrix metalloproteinase-9 (MMP-9) (human) (UniProt P14780)
Test: cell-based or functional assay

Sequence of UniProt P14780 (P14780 107-707 Q279R/R574P limits assumed): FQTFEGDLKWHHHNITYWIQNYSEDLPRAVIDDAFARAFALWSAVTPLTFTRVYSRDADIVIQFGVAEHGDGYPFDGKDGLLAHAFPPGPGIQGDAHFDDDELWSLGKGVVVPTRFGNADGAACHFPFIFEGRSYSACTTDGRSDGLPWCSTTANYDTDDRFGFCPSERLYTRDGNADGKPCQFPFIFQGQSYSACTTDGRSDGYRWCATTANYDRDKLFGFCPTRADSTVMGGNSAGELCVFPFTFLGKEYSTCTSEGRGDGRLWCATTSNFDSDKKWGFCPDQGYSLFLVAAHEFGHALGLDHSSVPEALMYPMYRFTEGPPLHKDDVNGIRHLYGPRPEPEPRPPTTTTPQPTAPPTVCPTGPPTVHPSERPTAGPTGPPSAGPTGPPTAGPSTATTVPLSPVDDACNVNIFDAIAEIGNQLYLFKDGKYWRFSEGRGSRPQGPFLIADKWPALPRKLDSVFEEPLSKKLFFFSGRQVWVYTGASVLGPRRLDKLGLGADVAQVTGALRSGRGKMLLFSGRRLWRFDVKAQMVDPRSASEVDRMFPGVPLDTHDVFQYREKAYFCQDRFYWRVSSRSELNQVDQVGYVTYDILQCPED

FBGC formation from human monocytes induced with IL-4 and GM-CSF (FBGC/high power field) (FBGC/high power field): 3.7
fraction of cells fused: 9.8%
Substance: anti-human MMP-9 monoclonal antibody (raised in mouse) obtained from Chemicon International (catalog number MAB13415)
